Laboratory results: US20140302035A1 (MERRIMACK PHARMACEUTICALS, published 2014)

Target: T1, Human EpCAM-Fc-his tagged (human)
T1 construct: also called Recombinant polyhistidine-tagged EpCAM-Fc; recombinant EpCAM
Test: BLI (ForteBio Octet), antibody loaded on Protein A tips, recombinant polyhistidine-tagged EpCAM-Fc in solution, 1:1 model
Protocol: For Octet analysis, all reagents and samples are brought to room temperature. Protein A sensor tips (ForteBio, #18-5010) are hydrated for 10 minutes in 1×PBS. Assay steps include: 1-2 minutes of equilibration in 1×PBS, 4 minutes of antibody loading (concentration of 50 μg/ml in 1×PBS), 1-2 minutes of baseline stabilization, 4 minutes of antibody:antigen association, and 4 minutes of antibody:antigen dissociation. 1×PBS is used as the matrix throughout. Data are analyzed with Octet Data Analysis software, processed, and fit to a 1:1 binding model to determine kinetic parameters (Kd, kₒₙ and kdiss).
Table A-2 describes approximate EpCAM binding affinity and dissociation rate as determined for Ab#1, Ab#2, Ab#3, Ab#4, Ab#5, Ab#6, Ab#7, Ab#8, Ab#9, Ab#10, Ab#11, Ab#12, and Ab#13.

T1 sequence (chain, as listed by the source): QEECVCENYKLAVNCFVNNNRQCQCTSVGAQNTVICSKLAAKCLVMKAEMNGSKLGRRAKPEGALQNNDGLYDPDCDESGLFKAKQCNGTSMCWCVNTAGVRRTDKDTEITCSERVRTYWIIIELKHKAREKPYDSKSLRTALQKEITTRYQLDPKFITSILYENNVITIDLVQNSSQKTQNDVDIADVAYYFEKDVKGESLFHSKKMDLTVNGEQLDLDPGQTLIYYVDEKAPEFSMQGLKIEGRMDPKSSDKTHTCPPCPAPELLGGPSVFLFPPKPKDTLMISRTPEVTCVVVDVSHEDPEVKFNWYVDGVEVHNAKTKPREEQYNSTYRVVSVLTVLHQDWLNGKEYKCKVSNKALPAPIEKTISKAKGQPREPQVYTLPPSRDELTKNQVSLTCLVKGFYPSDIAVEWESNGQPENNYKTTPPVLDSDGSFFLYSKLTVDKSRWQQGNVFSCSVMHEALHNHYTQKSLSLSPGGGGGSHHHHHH

Binder	Kd [nM]	koff [s⁻¹]
Ab#3 (bispecific antibody, human IgG1, kappa, Anti-c-Met Fab / tandem Fc / anti-EpCAM scFv TFcBA; also called Antibody #3) heavy: QLQLQESGPGLVKPSETLSLTCTVSGGSISSSVYYWSWIRQPPGKGLEWIGVIYPSGNTYYSPSLKSRVTISVDTSKNQFSLKLSSVTAADTAVYYCARTIYDLFDIWGQGTMVTVSSASTKGPSVFPLAPSSKSTSGGTAALGCLVKDYFPEPVTVSWNSGALTSGVHTFPAVLQSSGLYSLSSVVTVPSSSLGTQTYICNVNHKPSNTKVDKKVEPKSCDKTHTCPSCPAPEFLGGPSVFLFPPKPKDTLMISRTPEVTCVVVDVSQEDPEVQFNWYVDGVEVHNAKTKPREEQFNSKYRVVSVLTVLHQDWLNGKEYKCKVSNKGLPSSIEKTISKAKGQPREPQVYTLPPSREEMTKNQVSLSCAVKGFYPSDIAVEWESNGQPENNYKTTPPVLDSDGSFFLVSKLTVDKSRWQQGNVFSCSVMHEALHNHYTQKSLSLSKSCDKTGGGGSGGGGSGGGGSGGGGSGGGGSGGGGSGGGGSGGGGSCPSCPAPEFLGGPSVFLFPPKPKDTLMISRTPEVTCVVVDVSQEDPEVQFNWYVDGVEVHNAKTKPREEQFNSDYRVVSVLTVLHQDWLNGKEYKCKVSNKGLPSSIEKTISKAKGQPREPQVYTLPPSREEMTKNQVSLWCLVKGFYPSDIAVEWESNGQPENNYKTTPPVLDSDGSFFLYSKLTVDKSRWQQGNVFSCSVMHEALHNHYTQKSLSLSGECGGGGSGGGGSQVQLVQSGSELKKPGESVKVSCKASGYTFTNYGMNWVRQAPGQGLKWMGWINTYTGESTYADDFKGRFAFSLDTSASTAYLQISSLKAEDTAVYFCARFAIKGDYWGQGTLVTVSSASTGGGGSGGGGSGGGGSGGGGSDIVMTQSPLSLPVTPGEPASISCRSTKSLLHSDGITYLYWYLQKPGQSPQLLIYQLSNLASGVPDRFSSSGSGTDFTLKISRVEAEDEGVYYCAQNLEIPRTFGQGTKVEIK light: DIQMTQSPSSVSASVGDRVTITCRASQGISSWLAWYQQKPGKAPKLLIYAASSLQSGVPSRFSGSGSGTDFTLTISSLQPEDFATYYCLQANSFPPTFGGGTKVEIKRTVAAPSVFIFPPSDEQLKSGTASVVCLLNNFYPREAKVQWKVDNALQSGNSQESVTEQDSKDSTYSLSSTLTLSKADYEKHKVYACEVTHQGLSSPVTKSFNRGEC	17	0.00174
Ab#6 (bispecific antibody, human IgG1, kappa, Anti-c-Met Fab / tandem Fc / anti-EpCAM scFv TFcBA; also called Antibody #6) heavy: QLQLQESGPGLVKPSETLSLTCTVSGGSISSSVYYWSWIRQPPGKGLEWIGVIYPSGNTYYSPSLKSRVTISVDTSKNQFSLKLSSVTAADTAVYYCARTIYDLFDIWGQGTMVTVSSASTKGPSVFPLAPSSKSTSGGTAALGCLVKDYFPEPVTVSWNSGALTSGVHTFPAVLQSSGLYSLSSVVTVPSSSLGTQTYICNVNHKPSNTKVDKKVEPKSCDKTHTCPSCPAPEFLGGPSVFLFPPKPKDTLMISRTPEVTCVVVDVSQEDPEVQFNWYVDGVEVHNAKTKPREEQFNSKYRVVSVLTVLHQDWLNGKEYKCKVSNKGLPSSIEKTISKAKGQPREPQVYTLPPSREEMTKNQVSLSCAVKGFYPSDIAVEWESNGQPENNYKTTPPVLDSDGSFFLVSKLTVDKSRWQQGNVFSCSVMHEALHNHYTQKSLSLSKSCDKTGGGGSGGGGSGGGGSGGGGSGGGGSGGGGSGGGGSGGGGSCPSCPAPEFLGGPSVFLFPPKPKDTLMISRTPEVTCVVVDVSQEDPEVQFNWYVDGVEVHNAKTKPREEQFNSDYRVVSVLTVLHQDWLNGKEYKCKVSNKGLPSSIEKTISKAKGQPREPQVYTLPPSREEMTKNQVSLWCLVKGFYPSDIAVEWESNGQPENNYKTTPPVLDSDGSFFLYSKLTVDKSRWQQGNVFSCSVMHEALHNHYTQKSLSLSGECGGGGSGGGGSDIVMTQSPLSLPVTPGEPASISCRSTKSLLHSDGITYLYWYLQKPGQSPQLLIYQLSNLASGVPDRFSSSGSGTDFTLKISRVEAEDEGVYYCAQNLEIPRTFGGGTKLEIKRTGGGGSGGGGSGGGGSGGGGSQVQLVQSGAEVKKPGESVKISCKASGYTFTNYGMNWVRQAPGQGLKWMGWINTYTGESTYADDFKGRFAFSLDTSASTAYLQLSSLRSEDTAVYFCARFAIKGDYWGQGTLVTVSS light: DIQMTQSPSSVSASVGDRVTITCRASQGISSWLAWYQQKPGKAPKLLIYAASSLQSGVPSRFSGSGSGTDFTLTISSLQPEDFATYYCLQANSFPPTFGGGTKVEIKRTVAAPSVFIFPPSDEQLKSGTASVVCLLNNFYPREAKVQWKVDNALQSGNSQESVTEQDSKDSTYSLSSTLTLSKADYEKHKVYACEVTHQGLSSPVTKSFNRGEC	11.2	0.00122
Ab#9 (bispecific antibody, human IgG1, kappa, Anti-c-Met Fab / tandem Fc / anti-EpCAM scFv TFcBA; also called Antibody #9) heavy: QLQLQESGPGLVKPSETLSLTCTVSGGSISSSVYYWSWIRQPPGKGLEWIGVIYPSGNTYYSPSLKSRVTISVDTSKNQFSLKLSSVTAADTAVYYCARTIYDLFDIWGQGTMVTVSSASTKGPSVFPLAPSSKSTSGGTAALGCLVKDYFPEPVTVSWNSGALTSGVHTFPAVLQSSGLYSLSSVVTVPSSSLGTQTYICNVNHKPSNTKVDKKVEPKSCDKTHTCPSCPAPEFLGGPSVFLFPPKPKDTLMISRTPEVTCVVVDVSQEDPEVQFNWYVDGVEVHNAKTKPREEQFNSKYRVVSVLTVLHQDWLNGKEYKCKVSNKGLPSSIEKTISKAKGQPREPQVYTLPPSREEMTKNQVSLSCAVKGFYPSDIAVEWESNGQPENNYKTTPPVLDSDGSFFLVSKLTVDKSRWQQGNVFSCSVMHEALHNHYTQKSLSLSKSCDKTGGGGSGGGGSGGGGSGGGGSGGGGSGGGGSGGGGSGGGGSCPSCPAPEFLGGPSVFLFPPKPKDTLMISRTPEVTCVVVDVSQEDPEVQFNWYVDGVEVHNAKTKPREEQFNSDYRVVSVLTVLHQDWLNGKEYKCKVSNKGLPSSIEKTISKAKGQPREPQVYTLPPSREEMTKNQVSLWCLVKGFYPSDIAVEWESNGQPENNYKTTPPVLDSDGSFFLYSKLTVDKSRWQQGNVFSCSVMHEALHNHYTQKSLSLSGECGGGGSGGGGSQVQLQQSGGGLVKPGESVKISCAASGYTFTNYGMNWVKQAPGKGLKWMGWINTYTGESTYADDFKGRFTFSLETSASAAYLQINSLRPEDTAVYFCARFAIKGDYWGQGTTVTVSSASTGGGGSGGGGSGGGGSGGGGSGDIVMTQSPSSLSASVGDKATITCRSTKSLLHSNGITYLYWYLQKPGKAPKLLIYQMSNLASGVPDRFSSSGSGTEFTLTISSVQPEDEGTYYCAQNLEIPRTFGQGTKLEIK light: DIQMTQSPSSVSASVGDRVTITCRASQGISSWLAWYQQKPGKAPKLLIYAASSLQSGVPSRFSGSGSGTDFTLTISSLQPEDFATYYCLQANSFPPTFGGGTKVEIKRTVAAPSVFIFPPSDEQLKSGTASVVCLLNNFYPREAKVQWKVDNALQSGNSQESVTEQDSKDSTYSLSSTLTLSKADYEKHKVYACEVTHQGLSSPVTKSFNRGEC	10	0.00043
Ab#4 (bispecific antibody, human IgG1, kappa, Anti-c-Met Fab / tandem Fc / anti-EpCAM scFv TFcBA; also called Antibody #4) heavy: QLQLQESGPGLVKPSETLSLTCTVSGGSISSSVYYWSWIRQPPGKGLEWIGVIYPSGNTYYSPSLKSRVTISVDTSKNQFSLKLSSVTAADTAVYYCARTIYDLFDIWGQGTMVTVSSASTKGPSVFPLAPSSKSTSGGTAALGCLVKDYFPEPVTVSWNSGALTSGVHTFPAVLQSSGLYSLSSVVTVPSSSLGTQTYICNVNHKPSNTKVDKKVEPKSCDKTHTCPSCPAPEFLGGPSVFLFPPKPKDTLMISRTPEVTCVVVDVSQEDPEVQFNWYVDGVEVHNAKTKPREEQFNSKYRVVSVLTVLHQDWLNGKEYKCKVSNKGLPSSIEKTISKAKGQPREPQVYTLPPSREEMTKNQVSLSCAVKGFYPSDIAVEWESNGQPENNYKTTPPVLDSDGSFFLVSKLTVDKSRWQQGNVFSCSVMHEALHNHYTQKSLSLSKSCDKTGGGGSGGGGSGGGGSGGGGSGGGGSGGGGSGGGGSGGGGSCPSCPAPEFLGGPSVFLFPPKPKDTLMISRTPEVTCVVVDVSQEDPEVQFNWYVDGVEVHNAKTKPREEQFNSDYRVVSVLTVLHQDWLNGKEYKCKVSNKGLPSSIEKTISKAKGQPREPQVYTLPPSREEMTKNQVSLWCLVKGFYPSDIAVEWESNGQPENNYKTTPPVLDSDGSFFLYSKLTVDKSRWQQGNVFSCSVMHEALHNHYTQKSLSLSGECGGGGSGGGGSDIVMTQSPLSLPVTPGEPASISCRSTKSLLHSDGITYLYWYLQKPGQSPQLLIYQLSNLASGVPDRFSSSGSGTDFTLKISRVEAEDEGVYYCAQNLEIPRTFGQGTKVEIKRTGGGGSGGGGSGGGGSGGGGSGQVQLVQSGSELKKPGESVKVSCKASGYTFTNYGMNWVRQAPGQGLKWMGWINTYTGESTYADDFKGRFAFSLDTSASTAYLQISSLKAEDTAVYFCARFAIKGDYWGQGTLVTVSS light: DIQMTQSPSSVSASVGDRVTITCRASQGISSWLAWYQQKPGKAPKLLIYAASSLQSGVPSRFSGSGSGTDFTLTISSLQPEDFATYYCLQANSFPPTFGGGTKVEIKRTVAAPSVFIFPPSDEQLKSGTASVVCLLNNFYPREAKVQWKVDNALQSGNSQESVTEQDSKDSTYSLSSTLTLSKADYEKHKVYACEVTHQGLSSPVTKSFNRGEC	19.4	0.00174
Ab#8 (bispecific antibody, human IgG1, kappa, Anti-c-Met Fab / tandem Fc / anti-EpCAM scFv TFcBA; also called Antibody #8) heavy: QLQLQESGPGLVKPSETLSLTCTVSGGSISSSVYYWSWIRQPPGKGLEWIGVIYPSGNTYYSPSLKSRVTISVDTSKNQFSLKLSSVTAADTAVYYCARTIYDLFDIWGQGTMVTVSSASTKGPSVFPLAPSSKSTSGGTAALGCLVKDYFPEPVTVSWNSGALTSGVHTFPAVLQSSGLYSLSSVVTVPSSSLGTQTYICNVNHKPSNTKVDKKVEPKSCDKTHTCPSCPAPEFLGGPSVFLFPPKPKDTLMISRTPEVTCVVVDVSQEDPEVQFNWYVDGVEVHNAKTKPREEQFNSKYRVVSVLTVLHQDWLNGKEYKCKVSNKGLPSSIEKTISKAKGQPREPQVYTLPPSREEMTKNQVSLSCAVKGFYPSDIAVEWESNGQPENNYKTTPPVLDSDGSFFLVSKLTVDKSRWQQGNVFSCSVMHEALHNHYTQKSLSLSKSCDKTGGGGSGGGGSGGGGSGGGGSGGGGSGGGGSGGGGSGGGGSCPSCPAPEFLGGPSVFLFPPKPKDTLMISRTPEVTCVVVDVSQEDPEVQFNWYVDGVEVHNAKTKPREEQFNSDYRVVSVLTVLHQDWLNGKEYKCKVSNKGLPSSIEKTISKAKGQPREPQVYTLPPSREEMTKNQVSLWCLVKGFYPSDIAVEWESNGQPENNYKTTPPVLDSDGSFFLYSKLTVDKSRWQQGNVFSCSVMHEALHNHYTQKSLSLSGECGGGGSGGGGSQVQLVQSGAEVKKPGESVKISCKASGYTFTNYGMNWVRQAPGQGLKWMGWINTYTGESTYADDFKGRFAFSLDTSASTAYLQLSSLRSEDTAVYFCARFAIKGDYWGQGTLVTVSSASTGGGGSGGGGSGGGGSGGGGSDIVMTQSPLSLPVTPGEPASISCRSTKSLLHSDGITYLYWYLQKPGQSPQLLIYQMSNLASGVPDRFSSSGSGTDFTLKISRVEAEDEGVYYCAQNLEIPRTFGGGTKLEIKRT light: DIQMTQSPSSVSASVGDRVTITCRASQGISSWLAWYQQKPGKAPKLLIYAASSLQSGVPSRFSGSGSGTDFTLTISSLQPEDFATYYCLQANSFPPTFGGGTKVEIKRTVAAPSVFIFPPSDEQLKSGTASVVCLLNNFYPREAKVQWKVDNALQSGNSQESVTEQDSKDSTYSLSSTLTLSKADYEKHKVYACEVTHQGLSSPVTKSFNRGEC	16.7	0.00098
